The target in the data set is ETS1:RUNX1 (Homo sapiens, UniProt P14921;Q01196 full;full). Description: gcPBM; 1 nM ETS1 + 25 nM RUNX1, anti-ETS1 signal, normalised. As to conditions: tags: N-terminal GST (pDEST15), kept (PMC6008103); copies: 1;1; label: surface-attached array probe.
Sequence of ETS1:RUNX1 (P14921 whole entry, chain 1 of 2): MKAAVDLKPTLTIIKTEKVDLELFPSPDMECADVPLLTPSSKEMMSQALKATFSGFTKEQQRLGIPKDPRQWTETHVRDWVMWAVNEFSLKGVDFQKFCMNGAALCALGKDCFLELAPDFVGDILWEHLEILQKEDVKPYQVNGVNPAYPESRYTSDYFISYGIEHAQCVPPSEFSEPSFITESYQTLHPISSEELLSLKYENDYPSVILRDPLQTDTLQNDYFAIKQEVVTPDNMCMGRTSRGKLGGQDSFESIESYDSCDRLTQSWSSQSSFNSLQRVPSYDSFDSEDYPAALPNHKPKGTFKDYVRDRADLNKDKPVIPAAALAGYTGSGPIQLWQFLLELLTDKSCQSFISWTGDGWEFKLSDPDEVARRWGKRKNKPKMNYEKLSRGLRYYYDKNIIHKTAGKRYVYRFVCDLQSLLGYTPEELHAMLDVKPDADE
Sequence of ETS1:RUNX1 (Q01196 whole entry, chain 2 of 2): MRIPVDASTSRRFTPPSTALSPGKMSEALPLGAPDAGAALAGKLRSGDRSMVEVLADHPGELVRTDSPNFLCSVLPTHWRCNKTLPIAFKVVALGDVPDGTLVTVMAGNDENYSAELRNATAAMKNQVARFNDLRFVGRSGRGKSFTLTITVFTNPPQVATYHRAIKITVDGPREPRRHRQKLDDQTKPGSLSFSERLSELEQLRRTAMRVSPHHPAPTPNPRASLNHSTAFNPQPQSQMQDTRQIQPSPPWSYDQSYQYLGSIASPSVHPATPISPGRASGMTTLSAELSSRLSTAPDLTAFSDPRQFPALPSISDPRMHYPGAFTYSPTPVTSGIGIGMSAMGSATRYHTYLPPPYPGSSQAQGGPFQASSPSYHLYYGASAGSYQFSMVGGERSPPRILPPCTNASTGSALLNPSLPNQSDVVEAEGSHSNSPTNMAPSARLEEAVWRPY

B1: Table S2 A row 860 (dsDNA)
DNA 1: CTGAGCCGGATGTTACTGGTTAGTGGTTTTCTTTAT
DNA 2: ATAAAGAAAACCACTAACCAGTAACATCCGGCTCAG
For the molecule B1, the binding signal was 5210 PBM fluorescence, median of replicate spots.

B2: Table S2 A row 1241 (dsDNA)
DNA 1: AAGAAAAAGGGAGGATGTGGTTTAGCAAAAGCACTG
DNA 2: CAGTGCTTTTGCTAAACCACATCCTCCCTTTTTCTT
On to B2, for which the binding signal is 5810 PBM fluorescence, median of replicate spots.

B3: Table S2 A row 1325 (dsDNA)
DNA 1: GGACCGGTGTCTGGCGGATGCGGTCGTGAAGATAGG
DNA 2: CCTATCTTCACGACCGCATCCGCCAGACACCGGTCC
Consider B3, for which the binding signal is 4590 PBM fluorescence, median of replicate spots.

B4: Table S2 A row 1339 (dsDNA)
DNA 1: GTAGGGAAGACGGGATGTGGGTTTTCAGCCGTGGCC
DNA 2: GGCCACGGCTGAAAACCCACATCCCGTCTTCCCTAC
For B4, the binding signal was 4760 PBM fluorescence, median of replicate spots.

B5: Table S2 A row 1124 (dsDNA)
DNA 1: ATCTTTTGATGAGGATGTGGTTTCCAGGCAGGTGCT
DNA 2: AGCACCTGCCTGGAAACCACATCCTCATCAAAAGAT
As to B5, the binding signal is 4440 PBM fluorescence, median of replicate spots.

B6: Table S2 A row 34 (dsDNA)
DNA 1: GGAGGTGGGGAGGAAGTTCTGAAACCACACACATTT
DNA 2: AAATGTGTGTGGTTTCAGAACTTCCTCCCCACCTCC
With B6, the binding signal was 4160 PBM fluorescence, median of replicate spots.

B7: Table S2 A row 1719 (dsDNA)
DNA 1: GCCACACTTCCGGCGGGGCTGCGACCGCAGAGGGGC
DNA 2: GCCCCTCTGCGGTCGCAGCCCCGCCGGAAGTGTGGC
For the molecule B7, the binding signal is 5900 PBM fluorescence, median of replicate spots.

B8: Table S2 A row 122 (dsDNA)
DNA 1: GAGAAACAGGAAGAGGGGTGGTGGTTACGGAACACG
DNA 2: CGTGTTCCGTAACCACCACCCCTCTTCCTGTTTCTC
Turning to B8, the binding signal is 4040 PBM fluorescence, median of replicate spots.

B9: Table S2 A row 1300 (dsDNA)
DNA 1: CAAGTAATCTGCTCAGGAAGTGGTTTGAATAGAGGA
DNA 2: TCCTCTATTCAAACCACTTCCTGAGCAGATTACTTG
For the molecule B9, the binding signal is 4710 PBM fluorescence, median of replicate spots.

B10: Table S2 A row 238 (dsDNA)
DNA 1: GCGCGGACAGAGAAAGGATGTGGTATAGCAGAAAGT
DNA 2: ACTTTCTGCTATACCACATCCTTTCTCTGTCCGCGC
For B10, the binding signal is 4350 PBM fluorescence, median of replicate spots.

B11: Table S2 A row 733 (dsDNA)
DNA 1: CAGTGAACAGTTTCCTGTTCCTGTGGTTTTGACTTT
DNA 2: AAAGTCAAAACCACAGGAACAGGAAACTGTTCACTG
For B11, the binding signal was 5690 PBM fluorescence, median of replicate spots.

B12: Table S2 A row 552 (dsDNA)
DNA 1: AACCATTACAGGATGTGAGATTCAAACCACTAACAG
DNA 2: CTGTTAGTGGTTTGAATCTCACATCCTGTAATGGTT
Regarding B12, the binding signal was 4190 PBM fluorescence, median of replicate spots.

B13: Table S2 A row 1268 (dsDNA)
DNA 1: GAATGGCGGATGTGGCTGGGGAGAGAAAGCCGCAGA
DNA 2: TCTGCGGCTTTCTCTCCCCAGCCACATCCGCCATTC
Consider B13, for which the binding signal was 4780 PBM fluorescence, median of replicate spots.

B14: Table S2 A row 719 (dsDNA)
DNA 1: TTGCCATTCCAGGAAATGAGCTTACCACATTGACTG
DNA 2: CAGTCAATGTGGTAAGCTCATTTCCTGGAATGGCAA
As for B14, the binding signal was 6220 PBM fluorescence, median of replicate spots.

B15: Table S2 A row 1225 (dsDNA)
DNA 1: GCTAGACAGGAAACAGTGAGCTTCTGTGGGCAGGAG
DNA 2: CTCCTGCCCACAGAAGCTCACTGTTTCCTGTCTAGC
Take B15: the binding signal is 5960 PBM fluorescence, median of replicate spots.

B16: Table S2 A row 877 (dsDNA)
DNA 1: GAGTGGGCGGAAATCCGTGCCTGGCAGACCACAAAG
DNA 2: CTTTGTGGTCTGCCAGGCACGGATTTCCGCCCACTC
With B16, the binding signal is 4940 PBM fluorescence, median of replicate spots.

B17: Table S2 A row 1530 (dsDNA)
DNA 1: CCAGGCGGAAGCGGCCGGGAGTAGCGCTGCGGTTGG
DNA 2: CCAACCGCAGCGCTACTCCCGGCCGCTTCCGCCTGG
For the molecule B17, the binding signal was 5640 PBM fluorescence, median of replicate spots.

B18: Table S2 A row 1363 (dsDNA)
DNA 1: ATGAGCTATTTCCTGCCTTGTGGTCAGAGCCAGACT
DNA 2: AGTCTGGCTCTGACCACAAGGCAGGAAATAGCTCAT
Consider B18, for which the binding signal is 5600 PBM fluorescence, median of replicate spots.

B19: Table S2 A row 233 (dsDNA)
DNA 1: TCCTATATACTTCCGTTTGCCTCGCGGTTTCTTTCT
DNA 2: AGAAAGAAACCGCGAGGCAAACGGAAGTATATAGGA
On to B19, for which the binding signal was 4400 PBM fluorescence, median of replicate spots.

B20: Table S2 A row 995 (dsDNA)
DNA 1: GCGCCCTCCAGGAAACGCCGCGGTTTACTGTCTGCC
DNA 2: GGCAGACAGTAAACCGCGGCGTTTCCTGGAGGGCGC
B20: the binding signal is 4310 PBM fluorescence, median of replicate spots.

B21: Table S2 A row 1092 (dsDNA)
DNA 1: CTCACAGAGCAAGTAGGATGTGGTTTCCAGGGGCTG
DNA 2: CAGCCCCTGGAAACCACATCCTACTTGCTCTGTGAG
On to B21, for which the binding signal was 5400 PBM fluorescence, median of replicate spots.

B22: Table S2 A row 717 (dsDNA)
DNA 1: GGACAGGAAGTTCCTGCAGCTTCTACCACAAACCTA
DNA 2: TAGGTTTGTGGTAGAAGCTGCAGGAACTTCCTGTCC
Regarding B22, the binding signal is 4990 PBM fluorescence, median of replicate spots.

B23: Table S2 A row 426 (dsDNA)
DNA 1: GCCGGAAGCCACGCAGGGCCACGTCTGCGGTTCTGA
DNA 2: TCAGAACCGCAGACGTGGCCCTGCGTGGCTTCCGGC
Consider B23, for which the binding signal was 4460 PBM fluorescence, median of replicate spots.

B24: Table S2 A row 777 (dsDNA)
DNA 1: CAGGAGCAGTGTAGAGGAAGTGGTTTCCATCACGGA
DNA 2: TCCGTGATGGAAACCACTTCCTCTACACTGCTCCTG
On to B24, for which the binding signal is 4870 PBM fluorescence, median of replicate spots.

B25: Table S2 A row 391 (dsDNA)
DNA 1: TGCAAAAAAACAGGAAACACCCAGCCGCAAATTATA
DNA 2: TATAATTTGCGGCTGGGTGTTTCCTGTTTTTTTGCA
As for B25, the binding signal was 6020 PBM fluorescence, median of replicate spots.

B26: Table S2 A row 1035 (dsDNA)
DNA 1: AGTTGGTTCCTTCCGGTGGGTTTGTGGGTTTGGGGT
DNA 2: ACCCCAAACCCACAAACCCACCGGAAGGAACCAACT
Take B26: the binding signal was 5250 PBM fluorescence, median of replicate spots.

B27: Table S2 A row 1723 (dsDNA)
DNA 1: CAACCCGGAAGCACTAACGGAGAAACCGCAACTCGG
DNA 2: CCGAGTTGCGGTTTCTCCGTTAGTGCTTCCGGGTTG
With B27, the binding signal is 5540 PBM fluorescence, median of replicate spots.

B28: Table S2 A row 1614 (dsDNA)
DNA 1: ACCTCAAGCCCAGGATGTGGTTTGGCCACTATTGAG
DNA 2: CTCAATAGTGGCCAAACCACATCCTGGGCTTGAGGT
With B28, the binding signal was 6100 PBM fluorescence, median of replicate spots.

B29: Table S2 A row 585 (dsDNA)
DNA 1: TGTATGAAAAAAACAGGAAACCACAGAGAACTGAGG
DNA 2: CCTCAGTTCTCTGTGGTTTCCTGTTTTTTTCATACA
Take B29: the binding signal was 4240 PBM fluorescence, median of replicate spots.

B30: Table S2 A row 1400 (dsDNA)
DNA 1: AGCTGCATTTCCGGGCAGGCAATGAAACCACAGAGT
DNA 2: ACTCTGTGGTTTCATTGCCTGCCCGGAAATGCAGCT
Consider B30, for which the binding signal was 3930 PBM fluorescence, median of replicate spots.

B31: Table S2 A row 274 (dsDNA)
DNA 1: ATGCCTTCTTCCAGAGGATGTGGTCGCTACTAGTGG
DNA 2: CCACTAGTAGCGACCACATCCTCTGGAAGAAGGCAT
Consider B31, for which the binding signal is 4270 PBM fluorescence, median of replicate spots.

B32: Table S2 A row 1154 (dsDNA)
DNA 1: GGCCTCGGCCACATCCGGGTTCCACCGCAGATTCGG
DNA 2: CCGAATCTGCGGTGGAACCCGGATGTGGCCGAGGCC
Consider B32, for which the binding signal is 5630 PBM fluorescence, median of replicate spots.

B33: Table S2 A row 1378 (dsDNA)
DNA 1: CAAGAGAAAGGAAGTGGAAGCTCTTGTGGTCTGGAA
DNA 2: TTCCAGACCACAAGAGCTTCCACTTCCTTTCTCTTG
On to B33, for which the binding signal was 5370 PBM fluorescence, median of replicate spots.

B34: Table S2 A row 414 (dsDNA)
DNA 1: CGCCGAACTTCCGGCAGTAAATTCCGTGGTTTCCCT
DNA 2: AGGGAAACCACGGAATTTACTGCCGGAAGTTCGGCG
Consider B34, for which the binding signal is 5300 PBM fluorescence, median of replicate spots.

B35: Table S2 A row 329 (dsDNA)
DNA 1: TCCAGCTCCACAGGATGTGGTGAGTGAAGCAGCAAG
DNA 2: CTTGCTGCTTCACTCACCACATCCTGTGGAGCTGGA
B35: the binding signal is 6260 PBM fluorescence, median of replicate spots.

B36: Table S2 A row 145 (dsDNA)
DNA 1: TGGGGAACGCTGCGGATGCTGCGGTAAACCATGCGA
DNA 2: TCGCATGGTTTACCGCAGCATCCGCAGCGTTCCCCA
B36: the binding signal is 5120 PBM fluorescence, median of replicate spots.

B37: Table S2 A row 1073 (dsDNA)
DNA 1: ACCTTGCCTAGAGGAAGTGGTTTTTCGAATCTGAGT
DNA 2: ACTCAGATTCGAAAAACCACTTCCTCTAGGCAAGGT
As for B37, the binding signal is 4490 PBM fluorescence, median of replicate spots.

B38: Table S2 A row 1272 (dsDNA)
DNA 1: TTGAATATGAAAGGAAGTGGTTAGGTGATGTGTTCT
DNA 2: AGAACACATCACCTAACCACTTCCTTTCATATTCAA
Regarding B38, the binding signal is 5150 PBM fluorescence, median of replicate spots.

B39: Table S2 A row 1069 (dsDNA)
DNA 1: AAAGCATTTCCTGCCTTGACTTAACCACAAGACAGG
DNA 2: CCTGTCTTGTGGTTAAGTCAAGGCAGGAAATGCTTT
Regarding B39, the binding signal was 6290 PBM fluorescence, median of replicate spots.

B40: Table S2 A row 163 (dsDNA)
DNA 1: GATTGTTATGTCCGGAAACCGCTTATCAGAGCCCTG
DNA 2: CAGGGCTCTGATAAGCGGTTTCCGGACATAACAATC
On to B40, for which the binding signal is 5000 PBM fluorescence, median of replicate spots.

B41: Table S2 A row 813 (dsDNA)
DNA 1: AAGTTGATTTCCGGGTAGTCTGTGGTTTCCTAATCA
DNA 2: TGATTAGGAAACCACAGACTACCCGGAAATCAACTT
B41: the binding signal is 4110 PBM fluorescence, median of replicate spots.

B42: Table S2 A row 485 (dsDNA)
DNA 1: TGAAGTACTAGTCAAGGATGTGGTTTTACATAGCAG
DNA 2: CTGCTATGTAAAACCACATCCTTGACTAGTACTTCA
As for B42, the binding signal is 4920 PBM fluorescence, median of replicate spots.

These data come from publication PMC10681739, “High-throughput data and modeling reveal insights into the mechanisms of cooperative DNA-binding by transcription factor proteins”.
